In PMC11148541 (Cancer Immunology Research, 2024):

Target: T1, mouse IL18BPd-Fc (mouse, UniProt Q9Z0M9 29-193)
T1 sequence: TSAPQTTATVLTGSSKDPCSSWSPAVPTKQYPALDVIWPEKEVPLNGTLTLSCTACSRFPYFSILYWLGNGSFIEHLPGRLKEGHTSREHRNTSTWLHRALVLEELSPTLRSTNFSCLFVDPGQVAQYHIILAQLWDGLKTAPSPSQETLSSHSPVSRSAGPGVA
Assay: KinExA

B1: mouse IL18 (ligand)
chain: NFGRLHCTTAVIRNINDQVLFVDKRQPVFEDMTDIDQSASEPQTRLIIYMYKDSEVRGLAVTLSVKDSKMSTLSCKNKIISFEEMDPPENIDDIQSDLIFFQKRVPGHNKMEFESSLYEGHFLACQKEDDAFKLILKKKDENGDKSVMFTLTNLHQS
- Kd: 3.7 pM
